B1: G/T mismatch-specific thymine DNA glycosylase (Mus musculus), P56581 (parent)
chain: MDAEAARSYSLEQVQALYSFPFQQMMAEVPNMAVTTGQQVPAVAPNMATVTEQQVPEDAPVQEPAPEAPKRRKRKPRAAEPQEPVEPKKPATSKKSGKSTKSKEKQEKITDAFKVKRKVDRFNGVSEAELLTKTLPDILTFNLDIVIIGINPGLMAAYKGHHYPGPGNHFWKCLFMSGLSEVQLNHMDDHTLPGKYGIGFTNMVERTTPGSKDLSSKEFREGGRILVQKLQKYQPRIAVFNGKCIYEIFSKEVFGVKVKNLEFGLQPHKIPDTETLCYVMPSSSARCAQFPRAQDKVHYYIKLKDLRDQLKGIERNADVQEVQYTFDLQLAQEDAKKMAVKEEKYDPGYEAAYGGAYGENPCNGEPCGIASNGLTAHSAEPRGEAAPSDVPNGQWMAQSFAEQIPSFNNCGTREQEEESHA

Variants of: B1
Conditions: with ncoa1_human NCOA1, Q15788
Chain of ncoa1_human NCOA1, Q15788 (Q15788 whole entry): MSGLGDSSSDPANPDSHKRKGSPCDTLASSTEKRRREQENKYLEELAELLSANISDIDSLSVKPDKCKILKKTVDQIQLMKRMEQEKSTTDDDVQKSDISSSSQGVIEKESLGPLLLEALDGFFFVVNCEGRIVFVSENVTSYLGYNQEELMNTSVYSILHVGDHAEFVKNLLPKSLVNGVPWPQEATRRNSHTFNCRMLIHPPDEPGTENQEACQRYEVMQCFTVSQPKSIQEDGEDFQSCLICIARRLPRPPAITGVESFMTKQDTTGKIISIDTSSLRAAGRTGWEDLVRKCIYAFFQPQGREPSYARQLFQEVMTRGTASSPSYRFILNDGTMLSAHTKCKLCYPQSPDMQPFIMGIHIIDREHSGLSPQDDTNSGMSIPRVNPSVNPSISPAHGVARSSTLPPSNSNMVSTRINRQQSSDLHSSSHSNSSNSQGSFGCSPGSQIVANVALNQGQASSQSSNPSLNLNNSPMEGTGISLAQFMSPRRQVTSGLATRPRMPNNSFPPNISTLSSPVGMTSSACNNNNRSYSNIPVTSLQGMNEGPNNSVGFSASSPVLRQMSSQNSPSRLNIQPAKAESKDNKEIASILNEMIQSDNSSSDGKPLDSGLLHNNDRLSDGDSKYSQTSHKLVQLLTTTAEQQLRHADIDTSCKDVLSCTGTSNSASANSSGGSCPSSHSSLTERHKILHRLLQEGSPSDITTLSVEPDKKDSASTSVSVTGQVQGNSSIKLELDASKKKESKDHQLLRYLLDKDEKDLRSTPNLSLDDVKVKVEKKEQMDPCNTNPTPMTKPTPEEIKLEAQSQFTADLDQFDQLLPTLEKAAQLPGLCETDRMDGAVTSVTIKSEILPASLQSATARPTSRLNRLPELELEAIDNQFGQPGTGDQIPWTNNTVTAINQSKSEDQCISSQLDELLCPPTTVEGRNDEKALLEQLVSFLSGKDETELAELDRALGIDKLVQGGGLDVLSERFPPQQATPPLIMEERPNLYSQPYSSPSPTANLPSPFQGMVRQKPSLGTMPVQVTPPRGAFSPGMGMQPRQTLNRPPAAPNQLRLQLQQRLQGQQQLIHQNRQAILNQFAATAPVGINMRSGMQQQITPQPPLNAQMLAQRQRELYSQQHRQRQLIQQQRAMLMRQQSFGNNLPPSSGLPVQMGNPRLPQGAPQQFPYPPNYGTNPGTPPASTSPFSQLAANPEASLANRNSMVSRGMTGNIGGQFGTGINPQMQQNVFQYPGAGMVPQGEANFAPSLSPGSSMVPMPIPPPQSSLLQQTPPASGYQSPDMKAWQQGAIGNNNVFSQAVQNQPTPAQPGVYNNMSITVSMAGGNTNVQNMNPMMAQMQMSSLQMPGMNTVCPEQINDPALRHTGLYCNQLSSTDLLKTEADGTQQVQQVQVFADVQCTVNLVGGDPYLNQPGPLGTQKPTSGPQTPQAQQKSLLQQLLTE

effect of a mutation on the interaction | Variant
decreasing interaction strength | Y345F;Y349F
decreasing interaction strength | Y353F;Y357F
decreasing interaction strength | Y345F;Y349F;Y353F;Y357F
with no effect | D144A;V146A;I147A
with no effect | N151A

Variants of: B1
Conditions: with ncoa1_human NCOA1, Q15788
Remark: another data set of the same source

effect of a mutation on the interaction | Variant
decreasing interaction strength | Y345A;Y349A
decreasing interaction strength | Y353A;Y357A
decreasing interaction strength | Y345A;Y349A;Y353A;Y357A

Reference: IntAct's records for PubMed 16282588
